Results on 17 molecules are retold here after article PMC5650626, “Deletion of MtrA Inhibits Cellular Development of Streptomyces coelicolor and Alters Expression of Developmental Regulatory Genes”.

Series [1] deals with T1, MtrA (MtrASCO) (Streptomyces coelicolor M145) (UniProt Q9KYW8).
T1 sequence: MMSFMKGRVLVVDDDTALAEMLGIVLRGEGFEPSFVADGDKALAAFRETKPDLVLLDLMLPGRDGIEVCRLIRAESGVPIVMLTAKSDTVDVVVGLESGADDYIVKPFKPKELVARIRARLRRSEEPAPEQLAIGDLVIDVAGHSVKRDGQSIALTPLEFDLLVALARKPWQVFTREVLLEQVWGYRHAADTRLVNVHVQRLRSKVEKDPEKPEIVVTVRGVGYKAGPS
Description: EMSA. Conditions: EMSA: 20 mM Tris-HCl pH 8.0, 2 mM EDTA, 20 mM KCl, 0.5 mM DTT, 4% Ficoll-400, 2 ug poly(dI-dC), 50 fmol probe, 20 ul, room temperature 15 min; footprinting ….

In series [2] the target is T2, MtrA (MtrASCO) (Streptomyces coelicolor M145, UniProt Q9KYW8 1-229).
T2 sequence: T1 sequence
Description: EMSA; shift increases with MtrA; EMSA: 20 mM Tris-HCl pH 8.0, 2 mM EDTA, 20 mM KCl, 0.5 mM DTT, 4% Ficoll-400, 2 ug poly(dI-dC), 50 fmol probe, 20 ul, room temperature 15 min; footprinting 25 C, 30 min, 400 ng probe, 40 ul, poly(dI-dC). Conditions: protein: recombinant; tags: His-tag (pET28a NdeI/HindIII; native stop codon in primer); chain copies: 2; label: biotin-11-UTP 3' end; blunt. In general terms: Mobility shift assays separate free from complexed probe on a gel.

In series [3] the target is T2, MtrA (MtrASCO). The series can be described thus: EMSA; almost complete shift at 1.6 ug; EMSA: 20 mM Tris-HCl pH 8.0, 2 mM EDTA, 20 mM KCl, 0.5 mM DTT, 4% Ficoll-400, 2 ug poly(dI-dC), 50 fmol probe, 20 ul, room temperature 15 min; footprinting 25 C, 30 min, 400 ng probe, 40 ul, poly(dI-dC). The following applies: protein: recombinant; tags: His-tag (pET28a NdeI/HindIII; native stop codon in primer); chain copies: 2; label: biotin-11-UTP 3' end; blunt.

Series [4] deals with T2, MtrA (MtrASCO). The series can be described thus: EMSA; stronger than whiI-b; 2.1-6.3 ug MtrA; EMSA: 20 mM Tris-HCl pH 8.0, 2 mM EDTA, 20 mM KCl, 0.5 mM DTT, 4% Ficoll-400, 2 ug poly(dI-dC), 50 fmol probe, 20 ul, room temperature 15 min; footprinting 25 C, 30 min, 400 ng probe, 40 ul, poly(dI-dC). Conditions: protein: recombinant; tags: His-tag (pET28a NdeI/HindIII; native stop codon in primer); chain copies: 2; label: biotin-11-UTP 3' end; blunt.

For series [5], the target named is T2, MtrA (MtrASCO). The series can be described thus: EMSA; complete shift at lowest amount (1.6 ug); EMSA: 20 mM Tris-HCl pH 8.0, 2 mM EDTA, 20 mM KCl, 0.5 mM DTT, 4% Ficoll-400, 2 ug poly(dI-dC), 50 fmol probe, 20 ul, room temperature 15 min; footprinting 25 C, 30 min, 400 ng probe, 40 ul, poly(dI-dC). The following applies: protein: recombinant; tags: His-tag (pET28a NdeI/HindIII; native stop codon in primer); chain copies: 2; label: biotin-11-UTP 3' end; blunt.

The target in series [6] is T2, MtrA (MtrASCO). The series can be described thus: EMSA; lower affinity than whiI-a; 2.1-6.3 ug MtrA; EMSA: 20 mM Tris-HCl pH 8.0, 2 mM EDTA, 20 mM KCl, 0.5 mM DTT, 4% Ficoll-400, 2 ug poly(dI-dC), 50 fmol probe, 20 ul, room temperature 15 min; footprinting 25 C, 30 min, 400 ng probe, 40 ul, poly(dI-dC). The following applies: protein: recombinant; tags: His-tag (pET28a NdeI/HindIII; native stop codon in primer); chain copies: 2; label: biotin-11-UTP 3' end; blunt.

Take “GGACATATGGCTCCCCGGACAAGGTGTCGACGCGGCAGGCTGTGTTGTCGGCCGCGCGGCTGGTAACTCACTGTGAGGTTACGCAGCGTTACTCTGCTGCGTCAAGCCGAATGGTCCGCACCGACTCTTCCGTGGTATTCGCCATCCATTACTCCGTGCGGGTGATCGATGTGGGGCAGAGGAGTGACGGGGGAGTGTCAGGGGGGTCATCGGAGAGGTTCTGTGAGCCTGCTACCGTAGGTGGCGCATATCCGACGTCCTTTAAGGTCCGTCCCGTGAGGC (double strand) [bldD upstream PCR probe (282 bp)]”: the binding entry in series [1] is given as “binds”. Turning to “GTCGTCCCCGATGGCAGGTGTAGGCCCCGCGGGTGCGTTCAGTGCCGTCACGGTTGATGCGGCAGCGGCCCGGCGTCGCGAACTTCCTTGACGTCGTGTGCCGTCGGCCGGCCGTCGCCGGCCGTGAGCCAGGGTTCTCCCGGGGCCGTGCTGCCCCTCCGTCTTTGTTCCCCTCGCGCGCTGCGAAAGACGTACGCCGTGCGAAGGCCGTCGGCTCCCGCACTCCCGACGACCTCCAACCTGTGAAATGGACGAATCATGACGA (double strand) [bldKA upstream PCR probe (265 bp)]”, the binding result in series [1] was “no binding”. In the case of “CACCAGCCGTCGTTCATCGTTCCGGGCAGGGGGTCCGCACGTCCGGAGGAGGTTCCGTCACTTTGTCGACACGGCCACTTTCGGCCTCGTATCGACAAAGTGCGGAACCGTTCGATCTTCGAATGATCGACAGTGTGTCCGAATTGCTCGGATTGTTACTCACCAGATCGTGATCATTCTCTAAAGGCGGACGCGTTCGGTGCCGAAGACGACTGTGACCTTGAAAGCACGGTTCGTCCCGGCTTAAACCCCATGAGCCGGCCCCGTCCCCGCACCCCAGGAGGCCTGGTGTC (double strand) [whiI upstream PCR probe (293 bp)]”, the binding entry in series [1] is “binds”.

Regarding “CGTCAGGGATGCGTCAGGAGTGCGTCAGGGGTCCGAGAGGGGTCCGACCGAGGTGCGCCGGGGCCTTCATGCATGCCCCGTACGGCCCGTCGGGGCCCGCCACGGCGCAGGCTTCACCCGCTTAACCCTCCTGGTTCGCGGTCCCCGCGGGCACGGCCCACGATCGTGCTTACGCGACCGTCGCACCCCGCCGGCCTGGCGGGCGCCGCCGACGATCGCCCCAGTCCACGAGGATGACCGGAGAAGAGGTGGGCCGGATGACGGTCT (double strand) [whiE-ORF1 upstream PCR probe (267 bp)]”, the binding entry in series [1] is “no binding”.

B1: SCO3863 59bp (dsDNA)
DNA 1: CGCCCGACTATACACACCGGCCGATACCGATCGGTGACCTGCGTCGGCGGTCAACTGCC
DNA 2: GGCAGTTGACCGCCGACGCAGGTCACCGATCGGTATCGGCCGGTGTGTATAGTCGGGCG
Take B1: the binding result with MtrA (MtrASCO) [2] is listed as “binds”.

B2: SCO3485 59bp (dsDNA)
DNA 1: ATGCCCGTTGTCGACCAGGCGTGTCACCGTATGGTAAACCGGTTATCTGTGACGCGCGG
DNA 2: CCGCGCGTCACAGATAACCGGTTTACCATACGGTGACACGCCTGGTCGACAACGGGCAT
For B2, the binding result in the series with MtrA (MtrASCO) [3] was “binds”.

B3: whiI-a 59bp WT (SCO6029-a) (dsDNA)
DNA 1: GATCTGGTGAGTAACAATCCGAGCAATTCGGACACACTGTCGATCATTCGAAGATCGAA
DNA 2: TTCGATCTTCGAATGATCGACAGTGTGTCCGAATTGCTCGGATTGTTACTCACCAGATC
Turning to B3, the binding result in the series with MtrA (MtrASCO) [4] is “binds”.

B4: SCO7434 59bp (dsDNA)
DNA 1: ATACCGGTCCGGTGTGTCTGCGTGACGGAGCGGTTACGGACAGCATCATGAGCTCTGCA
DNA 2: TGCAGAGCTCATGATGCTGTCCGTAACCGCTCCGTCACGCAGACACACCGGACCGGTAT
On to B4, for which the binding result in the series with MtrA (MtrASCO) [2] is listed as “binds”.

B5: SCO1489 (bldD) 59bp WT (dsDNA)
DNA 1: TGACGCAGCAGAGTAACGCTGCGTAACCTCACAGTGAGTTACCAGCCGCGCGGCCGACA
DNA 2: TGTCGGCCGCGCGGCTGGTAACTCACTGTGAGGTTACGCAGCGTTACTCTGCTGCGTCA
Turning to B5, in the series with MtrA (MtrASCO) [5], the binding result was “binds”.

B6: SCO5583 59bp (dsDNA)
DNA 1: ACGACGACCGGCCCCGGCCGTTCACCCACGCGTAACACGCACCGTGCCTTCGTCACGGC
DNA 2: GCCGTGACGAAGGCACGGTGCGTGTTACGCGTGGGTGAACGGCCGGGGCCGGTCGTCGT
Take B6: in the series with MtrA (MtrASCO) [2], the binding result was “binds”.

B7: SCO7458 59bp (dsDNA)
DNA 1: GGGCGACCGGTGGTCACCTGGTGTAACAGTCTTCTTATGATCTGTAGACGAAATGATCG
DNA 2: CGATCATTTCGTCTACAGATCATAAGAAGACTGTTACACCAGGTGACCACCGGTCGCCC
Take B7: in the series with MtrA (MtrASCO) [2], the binding result is recorded as “binds”.

B8: SCO2136 59bp (dsDNA)
DNA 1: TTCCGCCACAACTCACCTGCAGTGACGTCTTCCTGACACCACGTTGCGTGACGGTTCCG
DNA 2: CGGAACCGTCACGCAACGTGGTGTCAGGAAGACGTCACTGCAGGTGAGTTGTGGCGGAA
On to B8, for which the binding result with MtrA (MtrASCO) [2] is “binds”.

B9: SCO1568 59bp (dsDNA)
DNA 1: CTCTGGGTGTGCGTGACTCACCTCACGGGGCGGTCACGTTCCTGCGGGGCGGTGGTCTG
DNA 2: CAGACCACCGCCCCGCAGGAACGTGACCGCCCCGTGAGGTGAGTCACGCACACCCAGAG
For B9, in the series with MtrA (MtrASCO) [2], the binding result is “binds”.

B10: whiI-b 59bp WT (SCO6029-b) (dsDNA)
DNA 1: TCACAGTCGTCTTCGGCACCGAACGCGTCCGCCTTTAGAGAATGATCACGATCTGGTGA
DNA 2: TCACCAGATCGTGATCATTCTCTAAAGGCGGACGCGTTCGGTGCCGAAGACGACTGTGA
As to B10, in the series with MtrA (MtrASCO) [6], the binding result is given as “binds”.

B11: SCO3561 59bp (dsDNA)
DNA 1: AATTACTCTCTATTTACTCGCTGTAATCGAACGGATACTCAGGAGACGGGAACATGTCA
DNA 2: TGACATGTTCCCGTCTCCTGAGTATCCGTTCGATTACAGCGAGTAAATAGAGAGTAATT
With B11, the binding result in the series with MtrA (MtrASCO) [2] is on record as “binds”.

B12: SCO2210 59bp (dsDNA)
DNA 1: GCCGCGCCACAACGAGCCCGGGTAACACGGGGTTCACCTACGGGCAACGGTCGGGAAAT
DNA 2: ATTTCCCGACCGTTGCCCGTAGGTGAACCCCGTGTTACCCGGGCTCGTTGTGGCGCGGC
Take B12: the binding result in the series with MtrA (MtrASCO) [2] is recorded as “binds”.

B13: SCO1189 59bp (dsDNA)
DNA 1: CTCCCGCCGACCTCACGTGCCGGTTACAAATCGCTCAACCTCTGGTTGCGAAGCGGTGA
DNA 2: TCACCGCTTCGCAACCAGAGGTTGAGCGATTTGTAACCGGCACGTGAGGTCGGCGGGAG
Consider B13, for which the binding result with MtrA (MtrASCO) [3] is “binds”.
